In the assay the target is C3b (biotinylated, captured site-specifically on a streptavidin chip) (UniProt P01024). Put plainly: SPR (Biacore 3000), single-cycle kinetics, biotinylated C3b on streptavidin chip, peptide as analyte, 1:1 Langmuir fit.
Usually koff stands for the first-order rate constant of dissociation. Read a low koff as a long-lived complex. Usually kon stands for the second-order rate constant of association. A low value points to slow association. With “Peptide 9: Tyr(Me)-Ile-[Cys-Val-Trp(Me)-Gln-Asp-Trp-Sar-Ala-His-Arg-Cys]-mIle-NH2”, the koff worked out at 0.0026 s⁻¹ and the kon came to 2.3e+06 M⁻¹ s⁻¹.
As a reminder, the Kd is the free concentration of one partner at which half of the binding sites on the other are occupied at equilibrium, for simple one-to-one binding. Turning to “Peptide 15: D-Phe-Ile-[Cys-Val-Trp(Me)-Gln-Asp-Trp-Sar-Ala-His-Arg-Cys]-mIle-NH2”, the Kd came out at 1.1 nM, the koff was 0.0026 s⁻¹ and the kon was found to be 2.3e+06 M⁻¹ s⁻¹.
In the case of “Peptide 16: D-Trp-Ile-[Cys-Val-Trp(Me)-Gln-Asp-Trp-Sar-Ala-His-Arg-Cys]-mIle-NH2”, the Kd is 1.2 nM, the koff was 0.0024 s⁻¹ and the kon came out at 2e+06 M⁻¹ s⁻¹.
Regarding “Peptide 17: D-Cha-Ile-[Cys-Val-Trp(Me)-Gln-Asp-Trp-Sar-Ala-His-Arg-Cys]-mIle-NH2”, the Kd turned out to be 1.5 nM, the koff is 0.0027 s⁻¹ and the kon amounted to 1.8e+06 M⁻¹ s⁻¹.
On the same counts, the results for “Peptide 18: D-Ala-Ile-[Cys-Val-Trp(Me)-Gln-Asp-Trp-Sar-Ala-His-Arg-Cys]-mIle-NH2” are 2.5 nM, 0.0034 s⁻¹ and 1.4e+06 M⁻¹ s⁻¹.
